According to article PMC7018833, “Siroheme synthase orients substrates for dehydrogenase and chelatase activities in a common active site” (Nature Communications, 2020):

Molecular target: the molecule itself
Test: crystal structure

Protein	binding result
S128A S. enterica siroheme synthase (CysG) (enzyme, also called S128A-CysG; source: E. coli LMG194 (pBAD vector), purified (Ni-NTA, anion-exchange, size exclusion chromatography)) MDHLPIFCQLRDRDCLIVGGGDVAERKARLLLEAGARLTVNALTFIPQFTVWANEGMLTLVEGPFDETLLDSCWLAIAATDDDTVNQRVSDAAESRRIFCNVVDAPKAASFIMPSIIDRSPLMVAVSAGGTSPVLARLLREKLESLLPQHLGQVARYAGQLRARVKKQFATMGERRRFWEKFFVNDRLAQSLANADEKAVNATTERLFSEPLDHRGEVVLVGAGPGDAGLLTLKGLQQIQQADIVVYDRLVSDDIMNLVRRDADRVFVGKRAGYHCVPQEEINQILLREAQKGKRVVRLKGGDPFIFGRGGEELETLCHAGIPFSVVPGITAASGCSAYSGIPLTHRDYAQSVRLVTGHLKTGGELDWENLAAEKQTLVFYMGLNQAATIQEKLIAFGMQADMPVALVENGTSVKQRVVHGVLTQLGELAQQVESPALIIVGRVVALRDKLNWFSNH	binds
P133G/S128A CysG (enzyme, source: E. coli LMG194 (pBAD vector), purified (Ni-NTA, anion-exchange, size exclusion chromatography)) MDHLPIFCQLRDRDCLIVGGGDVAERKARLLLEAGARLTVNALTFIPQFTVWANEGMLTLVEGPFDETLLDSCWLAIAATDDDTVNQRVSDAAESRRIFCNVVDAPKAASFIMPSIIDRSPLMVAVSAGGTSGVLARLLREKLESLLPQHLGQVARYAGQLRARVKKQFATMGERRRFWEKFFVNDRLAQSLANADEKAVNATTERLFSEPLDHRGEVVLVGAGPGDAGLLTLKGLQQIQQADIVVYDRLVSDDIMNLVRRDADRVFVGKRAGYHCVPQEEINQILLREAQKGKRVVRLKGGDPFIFGRGGEELETLCHAGIPFSVVPGITAASGCSAYSGIPLTHRDYAQSVRLVTGHLKTGGELDWENLAAEKQTLVFYMGLNQAATIQEKLIAFGMQADMPVALVENGTSVKQRVVHGVLTQLGELAQQVESPALIIVGRVVALRDKLNWFSNH	binds
P133H/S128A CysG (enzyme, source: E. coli LMG194 (pBAD vector), purified (Ni-NTA, anion-exchange, size exclusion chromatography)) MDHLPIFCQLRDRDCLIVGGGDVAERKARLLLEAGARLTVNALTFIPQFTVWANEGMLTLVEGPFDETLLDSCWLAIAATDDDTVNQRVSDAAESRRIFCNVVDAPKAASFIMPSIIDRSPLMVAVSAGGTSHVLARLLREKLESLLPQHLGQVARYAGQLRARVKKQFATMGERRRFWEKFFVNDRLAQSLANADEKAVNATTERLFSEPLDHRGEVVLVGAGPGDAGLLTLKGLQQIQQADIVVYDRLVSDDIMNLVRRDADRVFVGKRAGYHCVPQEEINQILLREAQKGKRVVRLKGGDPFIFGRGGEELETLCHAGIPFSVVPGITAASGCSAYSGIPLTHRDYAQSVRLVTGHLKTGGELDWENLAAEKQTLVFYMGLNQAATIQEKLIAFGMQADMPVALVENGTSVKQRVVHGVLTQLGELAQQVESPALIIVGRVVALRDKLNWFSNH	binds
R260A/S128A CysG (enzyme, source: E. coli LMG194 (pBAD vector), purified (Ni-NTA, anion-exchange, size exclusion chromatography)) MDHLPIFCQLRDRDCLIVGGGDVAERKARLLLEAGARLTVNALTFIPQFTVWANEGMLTLVEGPFDETLLDSCWLAIAATDDDTVNQRVSDAAESRRIFCNVVDAPKAASFIMPSIIDRSPLMVAVSAGGTSPVLARLLREKLESLLPQHLGQVARYAGQLRARVKKQFATMGERRRFWEKFFVNDRLAQSLANADEKAVNATTERLFSEPLDHRGEVVLVGAGPGDAGLLTLKGLQQIQQADIVVYDRLVSDDIMNLVARDADRVFVGKRAGYHCVPQEEINQILLREAQKGKRVVRLKGGDPFIFGRGGEELETLCHAGIPFSVVPGITAASGCSAYSGIPLTHRDYAQSVRLVTGHLKTGGELDWENLAAEKQTLVFYMGLNQAATIQEKLIAFGMQADMPVALVENGTSVKQRVVHGVLTQLGELAQQVESPALIIVGRVVALRDKLNWFSNH	binds
D104N/S128A CysG (enzyme, source: E. coli LMG194 (pBAD vector), purified (Ni-NTA, anion-exchange, size exclusion chromatography)) MDHLPIFCQLRDRDCLIVGGGDVAERKARLLLEAGARLTVNALTFIPQFTVWANEGMLTLVEGPFDETLLDSCWLAIAATDDDTVNQRVSDAAESRRIFCNVVNAPKAASFIMPSIIDRSPLMVAVSAGGTSPVLARLLREKLESLLPQHLGQVARYAGQLRARVKKQFATMGERRRFWEKFFVNDRLAQSLANADEKAVNATTERLFSEPLDHRGEVVLVGAGPGDAGLLTLKGLQQIQQADIVVYDRLVSDDIMNLVRRDADRVFVGKRAGYHCVPQEEINQILLREAQKGKRVVRLKGGDPFIFGRGGEELETLCHAGIPFSVVPGITAASGCSAYSGIPLTHRDYAQSVRLVTGHLKTGGELDWENLAAEKQTLVFYMGLNQAATIQEKLIAFGMQADMPVALVENGTSVKQRVVHGVLTQLGELAQQVESPALIIVGRVVALRDKLNWFSNH	binds
D262A/S128A CysG (enzyme, source: E. coli LMG194 (pBAD vector), purified (Ni-NTA, anion-exchange, size exclusion chromatography)) MDHLPIFCQLRDRDCLIVGGGDVAERKARLLLEAGARLTVNALTFIPQFTVWANEGMLTLVEGPFDETLLDSCWLAIAATDDDTVNQRVSDAAESRRIFCNVVDAPKAASFIMPSIIDRSPLMVAVSAGGTSPVLARLLREKLESLLPQHLGQVARYAGQLRARVKKQFATMGERRRFWEKFFVNDRLAQSLANADEKAVNATTERLFSEPLDHRGEVVLVGAGPGDAGLLTLKGLQQIQQADIVVYDRLVSDDIMNLVRRAADRVFVGKRAGYHCVPQEEINQILLREAQKGKRVVRLKGGDPFIFGRGGEELETLCHAGIPFSVVPGITAASGCSAYSGIPLTHRDYAQSVRLVTGHLKTGGELDWENLAAEKQTLVFYMGLNQAATIQEKLIAFGMQADMPVALVENGTSVKQRVVHGVLTQLGELAQQVESPALIIVGRVVALRDKLNWFSNH	binds
D262N/S128A CysG (enzyme, source: E. coli LMG194 (pBAD vector), purified (Ni-NTA, anion-exchange, size exclusion chromatography)) MDHLPIFCQLRDRDCLIVGGGDVAERKARLLLEAGARLTVNALTFIPQFTVWANEGMLTLVEGPFDETLLDSCWLAIAATDDDTVNQRVSDAAESRRIFCNVVDAPKAASFIMPSIIDRSPLMVAVSAGGTSPVLARLLREKLESLLPQHLGQVARYAGQLRARVKKQFATMGERRRFWEKFFVNDRLAQSLANADEKAVNATTERLFSEPLDHRGEVVLVGAGPGDAGLLTLKGLQQIQQADIVVYDRLVSDDIMNLVRRNADRVFVGKRAGYHCVPQEEINQILLREAQKGKRVVRLKGGDPFIFGRGGEELETLCHAGIPFSVVPGITAASGCSAYSGIPLTHRDYAQSVRLVTGHLKTGGELDWENLAAEKQTLVFYMGLNQAATIQEKLIAFGMQADMPVALVENGTSVKQRVVHGVLTQLGELAQQVESPALIIVGRVVALRDKLNWFSNH	binds
R261A/S128A CysG (enzyme, source: E. coli LMG194 (pBAD vector), purified (Ni-NTA, anion-exchange, size exclusion chromatography)) MDHLPIFCQLRDRDCLIVGGGDVAERKARLLLEAGARLTVNALTFIPQFTVWANEGMLTLVEGPFDETLLDSCWLAIAATDDDTVNQRVSDAAESRRIFCNVVDAPKAASFIMPSIIDRSPLMVAVSAGGTSPVLARLLREKLESLLPQHLGQVARYAGQLRARVKKQFATMGERRRFWEKFFVNDRLAQSLANADEKAVNATTERLFSEPLDHRGEVVLVGAGPGDAGLLTLKGLQQIQQADIVVYDRLVSDDIMNLVRADADRVFVGKRAGYHCVPQEEINQILLREAQKGKRVVRLKGGDPFIFGRGGEELETLCHAGIPFSVVPGITAASGCSAYSGIPLTHRDYAQSVRLVTGHLKTGGELDWENLAAEKQTLVFYMGLNQAATIQEKLIAFGMQADMPVALVENGTSVKQRVVHGVLTQLGELAQQVESPALIIVGRVVALRDKLNWFSNH	binds
D104A/S128A CysG (enzyme, source: E. coli LMG194 (pBAD vector), purified (Ni-NTA, anion-exchange, size exclusion chromatography)) MDHLPIFCQLRDRDCLIVGGGDVAERKARLLLEAGARLTVNALTFIPQFTVWANEGMLTLVEGPFDETLLDSCWLAIAATDDDTVNQRVSDAAESRRIFCNVVAAPKAASFIMPSIIDRSPLMVAVSAGGTSPVLARLLREKLESLLPQHLGQVARYAGQLRARVKKQFATMGERRRFWEKFFVNDRLAQSLANADEKAVNATTERLFSEPLDHRGEVVLVGAGPGDAGLLTLKGLQQIQQADIVVYDRLVSDDIMNLVRRDADRVFVGKRAGYHCVPQEEINQILLREAQKGKRVVRLKGGDPFIFGRGGEELETLCHAGIPFSVVPGITAASGCSAYSGIPLTHRDYAQSVRLVTGHLKTGGELDWENLAAEKQTLVFYMGLNQAATIQEKLIAFGMQADMPVALVENGTSVKQRVVHGVLTQLGELAQQVESPALIIVGRVVALRDKLNWFSNH	binds
